Values joined by “and” are separate entries in the source; they are usually repeats but may differ in a detail not shown here. Equal entries are not always repeated. “Also recorded” adds a separate entry of the source.
How the values were obtained:
Assay type in all cases: biochemical
[1] = Asymmetric reduction in 20 mL biocatalytic system, conversion
Description: (§1) In an embodiment of the present disclosure, a chromatographic analysis method is as follows: 100 μL of reactant liquid is taken, 500 μL of ethyl acetate is added, shaking is performed for 1-2 min, centrifugation is performed at 12,000 rpm for 2-5 min, supernatant liquid is taken into a centrifuge tube, after an organic phase naturally volatilizes completely, 500 μL of chromatographically pure ethanol is added, and chiral liquid chromatography and gas chromatography are performed to analyze the transformation rate and the ee value.
The pure (R)-CPMA were recrystallized from ethyl acetate at 4° C. and gave 99.9% optical purity. […] Besides, the conversion cannot reach 100% with 24 h in the asymmetric reduction of (4-bromophenyl)-(phenyl)-methanone and p-nitrobenzophenone due to the low enzyme activity.

[2] = Substrate specificity, specific activity
Description: Adopting a total reaction system of 200 μL, including: 1.0 mM NADPH, 1.0 mM substrate CPMK and sodium phosphate buffer (PBS, 100 mM, pH 7.0), fully and evenly mixing, maintaining at 30° C. for 2 min, adding an appropriate amount of enzyme solution, and detecting the change in light absorption at 340 nm.
The enzyme activity was calculated by the following formula: Enzyme activity (U)=EW×V×10^3/(6220×I);
in the formula, EW is the change in absorbance at 340 nm in 1 min; V is the volume of a reaction solution in mL; 6220 is the molar extinction coefficient of NADPH in L/mol·cm); and 1 is the optical path distance in cm. One activity unit (U) corresponds to the amount of enzyme required to catalyze the oxidation of 1 μmol NADPH per minute under the above conditions.
(§2) The reduction on prochiral carbonyl compounds by the alcohol dehydrogenase mutants obtained in Example 3 was studied. The pro-chiral carbonyl compounds include (4-chlorophenyl)-(pyridin-2-yl)-methanone (CPMK), phenyl-(pyridin-2-yl)-methanone, (4-chlorophenyl)-(phenyl)-methanone, (4-bromophenyl)(phenyl)methanone, (4-fluorophenyl)(phenyl)methanone, (4-methoxyphenyl)-(phenyl)-methanone, (4-nitrophenyl)(phenyl)methanone, 1-(pyridin-2-yl)ethanone, acetophenone, 4′-Chloroacetophenone, 4-chlorophenacyl chloride, ethyl 2-oxo-4-phenylbutanoate (OPBE), ethyl 4-chloro-3-oxobutanoate, and methyl 2-oxo-2-phenylacetate.

[3] = Stereoselectivity on different substrates; conditions: for Stereoselectivity (ee): configuration in brackets
Description: as §1
(§3) Method for determining optical purity ee:
(§4) As: molar concentration of (S)-CPMA obtained by liquid chromatography; and AR: molar concentration of (R)-CPMA obtained by liquid chromatography.
as §2
All the products above were recrystallized from ethyl acetate and gave more than 99.9% optical purity.

[4] = Stereoselectivity (ee) of CPMK reduction, chiral liquid chromatography
Description: as §1, §3, §4

[5] = Stereoselectivity on different substrates; conditions: configuration in brackets
Description: as §1, §3, §4, §2

[6] = substrate [drawing 6], 4-chlorophenacyl chloride
[7] = substrate [drawing 9], ethyl 4-chloro-3-oxobutanoate
[8] = substrate [drawing 10], acetophenone
[9] = substrate [drawing 11], 4-chloroacetophenone
[10] = substrate [drawing 12], 4-chlorobenzoyl chloride
[11] = substrate [drawing 16], (4-bromophenyl)-(phenyl)-methanone
[12] = substrate [drawing 17], p-nitrobenzophenone
[13] = product configuration in brackets
[14] = substrate [drawing 14], likely CPMK (values partly match Table 4)

B1: E214G/S237C: glycine for glutamate at position 214 and cysteine for serine at position 237 of SEQ ID No. 2 (protein)
chain: MSVLISGASGYIAKHIVRVLLEQNYKVIGTVRSQDKADKLLKQYNNPNLSYEIVPEIANLDAFDDIFKKHGKEIKYVIHAASPVNFGAKDLEKDLVIPAINGTKNMFEAIKKYAPDTVERVVMTASYASIMTPHRQNDPTLTLDEETWNPVTEENAYENVFTAYCASKTFAEKEAWKFVKENSDAVKFKLTTIHPSFVFGPQNFDEDVTKKLNGTCEIINGLLHAPFDTKVEKTHFCQFIDVRDVAKTHVLGFQKDELINQRLLLCNGAFSQQDIVNVFNEDFPELKGQFPPEDKDTDLNKGVTGCKIDNEKTKKLLAFEFTPFHKTIHDTVYQILHKEGRV
modifications: Protein translated from synthetic DNA
Conversion rate ([1]; acetophenone 100 mM, 1 h): 42% | Conversion rate ([1]; acetophenone 100 mM, 2 h): 53% | Conversion rate ([1]; acetophenone 100 mM, 3 h): 65% | Conversion rate ([1]; acetophenone 100 mM, 4 h): 77% | Conversion rate ([1]; acetophenone 100 mM, 6 h): 95% | Conversion rate ([1]; acetophenone 100 mM, 8 h): 99.0% | Conversion rate ([1]; acetophenone 100 mM, 12 h): >99.9% | Conversion rate ([1]; acetophenone 100 mM, 24 h): >99.9% | Conversion rate ([1]; acetophenone 200 mM, 1 h): 35% | Conversion rate ([1]; acetophenone 200 mM, 2 h): 49% | Conversion rate ([1]; acetophenone 200 mM, 3 h): 60% | Conversion rate ([1]; acetophenone 200 mM, 4 h): 72% | Conversion rate ([1]; acetophenone 200 mM, 6 h): 85.9% | Conversion rate ([1]; acetophenone 200 mM, 8 h): 93.6% | Conversion rate ([1]; acetophenone 200 mM, 12 h): 99.2% | Conversion rate ([1]; acetophenone 200 mM, 24 h): 99.7% | Conversion rate ([1]; acetophenone 500 mM, 1 h): 20.9% | Conversion rate ([1]; acetophenone 500 mM, 2 h): 34.5% | Conversion rate ([1]; acetophenone 500 mM, 3 h): 49.6% | Conversion rate ([1]; acetophenone 500 mM, 4 h): 62.6% | Conversion rate ([1]; acetophenone 500 mM, 6 h): 77.9% | Conversion rate ([1]; acetophenone 500 mM, 8 h): 88.6% | Conversion rate ([1]; acetophenone 500 mM, 12 h): 92.9% | Conversion rate ([1]; acetophenone 500 mM, 24 h): 99.2% | specific activity ([2]; substrate [drawing 1]): 0.15 U/mg | specific activity ([2]; substrate [drawing 2]): 0.07 U/mg | specific activity ([2]; substrate [drawing 3]): 0.12 U/mg | specific activity ([2]; substrate [drawing 4]): 3.10 U/mg | specific activity ([2]; substrate [drawing 5]): 4.84 U/mg | specific activity [2, 6]: 9.81 U/mg | specific activity ([2]; substrate [drawing 7]): 10.26 U/mg | specific activity ([2]; substrate [drawing 8]): 21.25 U/mg | specific activity [2, 7]: 1.55 U/mg | Stereoselectivity (ee) [3, 8]: 99.5 (R) | Stereoselectivity (ee) [3, 9]: 93.8 (R) | Stereoselectivity (ee) [3, 10]: 96.2 (R) | Stereoselectivity (ee) [3, 11]: 91.4 (R) | Stereoselectivity (ee) [3, 12]: 93.3 (R) | ee value ([3]; substrate acetophenone, R configuration products): 99.5% | configuration of product / stereoselectivity in words [4]: inversion from the R configuration to the S configuration; also recorded: (S)-CPMA | ee value, (S)-CPMA ([4]; S configuration product): 75.5% | e.e. [4, 13]: 75.5 (S) | Stereoselectivity (ee) ([5]; substrate [drawing 13]): 51.9 (R) | Stereoselectivity (ee) [5, 14]: 43.2 (S) | Stereoselectivity (ee) ([5]; substrate [drawing 15]): 86.2 (R) | Stereoselectivity (ee) ([5]; substrate [drawing 18]): 93.8 (S)

B2: WT: wild type alcohol dehydrogenase KpADH, amino acid sequence SEQ ID No. 2 (protein)
chain: MSVLISGASGYIAKHIVRVLLEQNYKVIGTVRSQDKADKLLKQYNNPNLSYEIVPEIANLDAFDDIFKKHGKEIKYVIHAASPVNFGAKDLEKDLVIPAINGTKNMFEAIKKYAPDTVERVVMTASYASIMTPHRQNDPTLTLDEETWNPVTEENAYENVFTAYCASKTFAEKEAWKFVKENSDAVKFKLTTIHPSFVFGPQNFDEDVTKKLNETCEIINGLLHAPFDTKVEKTHFSQFIDVRDVAKTHVLGFQKDELINQRLLLCNGAFSQQDIVNVFNEDFPELKGQFPPEDKDTDLNKGVTGCKIDNEKTKKLLAFEFTPFHKTIHDTVYQILHKEGRV
modifications: Protein translated from synthetic DNA
ee in asymmetric synthesis of (R)-CPMA ([1]; 20 mL biocatalytic system, 30° C., pH 7.5): 82% | Conversion rate ([1]; CPMK 100 mM, 1 h): 50.5% | Conversion rate ([1]; CPMK 100 mM, 2 h): 65.5% | Conversion rate ([1]; CPMK 100 mM, 3 h): 79.5% | Conversion rate ([1]; CPMK 100 mM, 4 h): 88.8% | Conversion rate ([1]; CPMK 100 mM, 6 h): 98.5% | Conversion rate ([1]; CPMK 100 mM, 8 h): >99.9% | Conversion rate ([1]; CPMK 100 mM, 12 h): >99.9% | Conversion rate ([1]; CPMK 100 mM, 24 h): >99.9% | Conversion rate ([1]; CPMK 200 mM, 1 h): 35.6% | Conversion rate ([1]; CPMK 200 mM, 2 h): 46.9% | Conversion rate ([1]; CPMK 200 mM, 3 h): 62.0% | Conversion rate ([1]; CPMK 200 mM, 4 h): 75.5% | Conversion rate ([1]; CPMK 200 mM, 6 h): 95.6% | Conversion rate ([1]; CPMK 200 mM, 8 h): 98.8% | Conversion rate ([1]; CPMK 200 mM, 12 h): 99.4% | Conversion rate ([1]; CPMK 200 mM, 24 h): 99.7% | Conversion rate ([1]; CPMK 500 mM, 1 h): 22.5% | Conversion rate ([1]; CPMK 500 mM, 2 h): 30% | Conversion rate ([1]; CPMK 500 mM, 3 h): 55.6% | Conversion rate ([1]; CPMK 500 mM, 4 h): 66.5% | Conversion rate ([1]; CPMK 500 mM, 6 h): 80.2% | Conversion rate ([1]; CPMK 500 mM, 8 h): 93.2% | Conversion rate ([1]; CPMK 500 mM, 12 h): 95.6% | Conversion rate ([1]; CPMK 500 mM, 24 h): 99.2% | specific activity ([2]; substrate [drawing 1]): 0.99 U/mg | specific activity ([2]; substrate [drawing 2]): 1.34 U/mg | specific activity ([2]; substrate [drawing 3]): 4.15 U/mg | specific activity ([2]; substrate [drawing 4]): 4.07 U/mg | specific activity ([2]; substrate [drawing 5]): 12.09 U/mg | specific activity [2, 6]: 20.67 U/mg | specific activity ([2]; substrate [drawing 7]): 27.02 U/mg | specific activity ([2]; substrate [drawing 8]): 39.77 U/mg | specific activity [2, 7]: 41.84 U/mg | Stereoselectivity (ee) [3, 8]: 88.6 (R) | Stereoselectivity (ee) [3, 9]: 92.9 (R) | Stereoselectivity (ee) [3, 10]: 95.2 (R) | Stereoselectivity (ee) [3, 11]: 70.5 (S) | Stereoselectivity (ee) [3, 12]: 37.6 (R) | ee value, (R)-CPMA ([4]; R configuration product): 82% and 81.7% | e.e. [4, 13]: 81.7 (R) | ee % [4, 13]: 81.7 (R) % | Stereoselectivity (ee) ([5]; substrate [drawing 13]): 27.5 (R) | Stereoselectivity (ee) [5, 14]: 83.7 (R) | Stereoselectivity (ee) ([5]; substrate [drawing 15]): 52.4 (S) | Stereoselectivity (ee) ([5]; substrate [drawing 18]): 27.3 (R)
